Paper PMC10540216, “Activity Guided Azide-methyllysine Photo-trapping for Substrate Profiling of Lysine Demethylases” (Journal of the American Chemical Society, 2023)

B1: RBM26_HUMAN (protein, UniProt Q5T8P6 1-1007, looked up)
RNA-binding protein 26: MVSKMIIENFEALKSWLSKTLEPICDADPSALAKYVLALVKKDKSEKELKALCIDQLDVFLQKETQIFVEKLFDAVNTKSYLPPPEQPSSGSLKVEFFPHQEKDIKKEEITKEEEREKKFSRRLNHSPPQSSSRYRENRSRDERKKDDRSRKRDYDRNPPRRDSYRDRYNRRRGRSRSYSRSRSRSWSKERLRERDRDRSRTRSRSRTRSRERDLVKPKYDLDRTDPLENNYTPVSSVPSISSGHYPVPTLSSTITVIAPTHHGNNTTESWSEFHEDQVDHNSYVRPPMPKKRCRDYDEKGFCMRGDMCPFDHGSDPVVVEDVNLPGMLPFPAQPPVVEGPPPPGLPPPPPILTPPPVNLRPPVPPPGPLPPSLPPVTGPPPPLPPLQPSGMDAPPNSATSSVPTVVTTGIHHQPPPAPPSLFTADTYDTDGYNPEAPSITNTSRPMYRHRVHAQRPNLIGLTSGDMDLPPREKPPNKSSMRIVVDSESRKRTIGSGEPGVPTKKTWFDKPNFNRTNSPGFQKKVQFGNENTKLELRKVPPELNNISKLNEHFSRFGTLVNLQVAYNGDPEGALIQFATYEEAKKAISSTEAVLNNRFIKVYWHREGSTQQLQTTSPKVMQPLVQQPILPVVKQSVKERLGPVPSSTIEPAEAQSASSDLPQNVTKLSVKDRLGFVSKPSVSATEKVLSTSTGLTKTVYNPAALKAAQKTLLVSTSAVDNNEAQKKKQEALKLQQDVRKRKQEILEKHIETQKMLISKLEKNKTMKSEDKAEIMKTLEVLTKNITKLKDEVKAASPGRCLPKSIKTKTQMQKELLDTELDLYKKMQAGEEVTELRRKYTELQLEAAKRGILSSGRGRGIHSRGRGAVHGRGRGRGRGRGVPGHAVVDHRPRALEISAFTESDREDLLPHFAQYGEIEDCQIDDSSLHAVITFKTRAEAEAAAVHGARFKGQDLKLAWNKPVTNISAVETEEVEPDEEEFQEESLVDDSLLQDDDEEEEDNESRSWRR
B2: CAND1_HUMAN (protein, UniProt Q86VP6 2-1230, looked up)
Cullin-associated …: ASASYHISNLLEKMTSSDKDFRFMATNDLMTELQKDSIKLDDDSERKVVKMILKLLEDKNGEVQNLAVKCLGPLVSKVKEYQVETIVDTLCTNMLSDKEQLRDISSIGLKTVIGELPPASSGSALAANVCKKITGRLTSAIAKQEDVSVQLEALDIMADMLSRQGGLLVNFHPSILTCLLPQLTSPRLAVRKRTIIALGHLVMSCGNIVFVDLIEHLLSELSKNDSMSTTRTYIQCIAAISRQAGHRIGEYLEKIIPLVVKFCNVDDDELREYCIQAFESFVRRCPKEVYPHVSTIINICLKYLTYDPNYNYDDEDEDENAMDADGGDDDDQGSDDEYSDDDDMSWKVRRAAAKCLDAVVSTRHEMLPEFYKTVSPALISRFKEREENVKADVFHAYLSLLKQTRPVQSWLCDPDAMEQGETPLTMLQSQVPNIVKALHKQMKEKSVKTRQCCFNMLTELVNVLPGALTQHIPVLVPGIIFSLNDKSSSSNLKIDALSCLYVILCNHSPQVFHPHVQALVPPVVACVGDPFYKITSEALLVTQQLVKVIRPLDQPSSFDATPYIKDLFTCTIKRLKAADIDQEVKERAISCMGQIICNLGDNLGSDLPNTLQIFLERLKNEITRLTTVKALTLIAGSPLKIDLRPVLGEGVPILASFLRKNQRALKLGTLSALDILIKNYSDSLTAAMIDAVLDELPPLISESDMHVSQMAISFLTTLAKVYPSSLSKISGSILNELIGLVRSPLLQGGALSAMLDFFQALVVTGTNNLGYMDLLRMLTGPVYSQSTALTHKQSYYSIAKCVAALTRACPKEGPAVVGQFIQDVKNSRSTDSIRLLALLSLGEVGHHIDLSGQLELKSVILEAFSSPSEEVKSAASYALGSISVGNLPEYLPFVLQEITSQPKRQYLLLHSLKEIISSASVVGLKPYVENIWALLLKHCECAEEGTRNVVAECLGKLTLIDPETLLPRLKGYLISGSSYARSSVVTAVKFTISDHPQPIDPLLKNCIGDFLKTLEDPDLNVRRVALVTFNSAAHNKPSLIRDLLDTVLPHLYNETKVRKELIREVEMGPFKHTVDDGLDIRKAAFECMYTLLDSCLDRLDIFEFLNHVEDGLKDHYDIKMLTFLMLVRLSTLCPSAVLQRLDRLVEPLRATCTTKVKANSVKQEFEKQDELKRSAMRAVAALLTIPEAEKSPLMSEFQSQISSNPELAAIFESIQKDSSSTNLESMDTS
B3: TR150_HUMAN (protein, UniProt Q9Y2W1 2-955, looked up)
Thyroid hormone …: SKTNKSKSGSRSSRSRSASRSRSRSFSKSRSRSRSLSRSRKRRLSSRSRSRSYSPAHNRERNHPRVYQNRDFRGHNRGYRRPYYFRGRNRGFYPWGQYNRGGYGNYRSNWQNYRQAYSPRRGRSRSRSPKRRSPSPRSRSHSRNSDKSSSDRSRRSSSSRSSSNHSRVESSKRKSAKEKKSSSKDSRPSQAAGDNQGDEAKEQTFSGGTSQDTKASESSKPWPDATYGTGSASRASAVSELSPRERSPALKSPLQSVVVRRRSPRPSPVPKPSPPLSSTSQMGSTLPSGAGYQSGTHQGQFDHGSGSLSPSKKSPVGKSPPSTGSTYGSSQKEESAASGGAAYTKRYLEEQKTENGKDKEQKQTNTDKEKIKEKGSFSDTGLGDGKMKSDSFAPKTDSEKPFRGSQSPKRYKLRDDFEKKMADFHKEEMDDQDKDKAKGRKESEFDDEPKFMSKVIGANKNQEEEKSGKWEGLVYAPPGKEKQRKTEELEEESFPERSKKEDRGKRSEGGHRGFVPEKNFRVTAYKAVQEKSSSPPPRKTSESRDKLGAKGDFPTGKSSFSITREAQVNVRMDSFDEDLARPSGLLAQERKLCRDLVHSNKKEQEFRSIFQHIQSAQSQRSPSELFAQHIVTIVHHVKEHHFGSSGMTLHERFTKYLKRGTEQEAAKNKKSPEIHRRIDISPSTFRKHGLAHDEMKSPREPGYKAEGKYKDDPVDLRLDIERRKKHKERDLKRGKSRESVDSRDSSHSRERSAEKTEKTHKGSKKQKKHRRARDRSRSSSSSSQSSHSYKAEEYTEETEEREESTTGFDKSRLGTKDFVGPSERGGGRARGTFQFRARGRGWGRGNYSGNNNNNSNNDFQKRNREEEWDPEYTPKSKKYYLHDDREGEGSDKWVSRGRGRGAFPRGRGRFMFRKSSTSPKWAHDKFSGEEGEIEDDESGTENREEKDNIQPTTE
B4: RBM10_HUMAN (protein, UniProt P98175 1-930, looked up)
RNA-binding protein 10: MEYERRGGRGDRTGRYGATDRSQDDGGENRSRDHDYRDMDYRSYPREYGSQEGKHDYDDSSEEQSAEDSYEASPGSETQRRRRRRHRHSPTGPPGFPRDGDYRDQDYRTEQGEEEEEEEDEEEEEKASNIVMLRMLPQAATEDDIRGQLQSHGVQAREVRLMRNKSSGQSRGFAFVEFSHLQDATRWMEANQHSLNILGQKVSMHYSDPKPKINEDWLCNKCGVQNFKRREKCFKCGVPKSEAEQKLPLGTRLDQQTLPLGGRELSQGLLPLPQPYQAQGVLASQALSQGSEPSSENANDTIILRNLNPHSTMDSILGALAPYAVLSSSNVRVIKDKQTQLNRGFAFIQLSTIVEAAQLLQILQALHPPLTIDGKTINVEFAKGSKRDMASNEGSRISAASVASTAIAAAQWAISQASQGGEGTWATSEEPPVDYSYYQQDEGYGNSQGTESSLYAHGYLKGTKGPGITGTKGDPTGAGPEASLEPGADSVSMQAFSRAQPGAAPGIYQQSAEASSSQGTAANSQSYTIMSPAVLKSELQSPTHPSSALPPATSPTAQESYSQYPVPDVSTYQYDETSGYYYDPQTGLYYDPNSQYYYNAQSQQYLYWDGERRTYVPALEQSADGHKETGAPSKEGKEKKEKHKTKTAQQIAKDMERWARSLNKQKENFKNSFQPISSLRDDERRESATADAGYAILEKKGALAERQHTSMDLPKLASDDRPSPPRGLVAAYSGESDSEEEQERGGPEREEKLTDWQKLACLLCRRQFPSKEALIRHQQLSGLHKQNLEIHRRAHLSENELEALEKNDMEQMKYRDRAAERREKYGIPEPPEPKRRKYGGISTASVDFEQPTRDGLGSDNIGSRMLQAMGWKEGSGLGRKKQGIVTPIEAQTRVRGSGLGARGSSYGVTSTESYKETLHKTMVTRFNEAQ
B5: SF3B3_HUMAN (protein, UniProt Q15393 1-1217, looked up)
Splicing factor 3B subunit 3: MFLYNLTLQRATGISFAIHGNFSGTKQQEIVVSRGKILELLRPDPNTGKVHTLLTVEVFGVIRSLMAFRLTGGTKDYIVVGSDSGRIVILEYQPSKNMFEKIHQETFGKSGCRRIVPGQFLAVDPKGRAVMISAIEKQKLVYILNRDAAARLTISSPLEAHKANTLVYHVVGVDVGFENPMFACLEMDYEEADNDPTGEAAANTQQTLTFYELDLGLNHVVRKYSEPLEEHGNFLITVPGGSDGPSGVLICSENYITYKNFGDQPDIRCPIPRRRNDLDDPERGMIFVCSATHKTKSMFFFLAQTEQGDIFKITLETDEDMVTEIRLKYFDTVPVAAAMCVLKTGFLFVASEFGNHYLYQIAHLGDDDEEPEFSSAMPLEEGDTFFFQPRPLKNLVLVDELDSLSPILFCQIADLANEDTPQLYVACGRGPRSSLRVLRHGLEVSEMAVSELPGNPNAVWTVRRHIEDEFDAYIIVSFVNATLVLSIGETVEEVTDSGFLGTTPTLSCSLLGDDALVQVYPDGIRHIRADKRVNEWKTPGKKTIVKCAVNQRQVVIALTGGELVYFEMDPSGQLNEYTERKEMSADVVCMSLANVPPGEQRSRFLAVGLVDNTVRIISLDPSDCLQPLSMQALPAQPESLCIVEMGGTEKQDELGERGSIGFLYLNIGLQNGVLLRTVLDPVTGDLSDTRTRYLGSRPVKLFRVRMQGQEAVLAMSSRSWLSYSYQSRFHLTPLSYETLEFASGFASEQCPEGIVAISTNTLRILALEKLGAVFNQVAFPLQYTPRKFVIHPESNNLIIIETDHNAYTEATKAQRKQQMAEEMVEAAGEDERELAAEMAAAFLNENLPESIFGAPKAGNGQWASVIRVMNPIQGNTLDLVQLEQNEAAFSVAVCRFSNTGEDWYVLVGVAKDLILNPRSVAGGFVYTYKLVNNGEKLEFLHKTPVEEVPAAIAPFQGRVLIGVGKLLRVYDLGKKKLLRKCENKHIANYISGIQTIGHRVIVSDVQESFIWVRYKRNENQLIIFADDTYPRWVTTASLLDYDTVAGADKFGNICVVRLPPNTNDEVDEDPTGNKALWDRGLLNGASQKAEVIMNYHVGETVLSLQKTTLIPGGSESLVYTTLSGGIGILVPFTSHEDHDFFQHVEMHLRSEHPPLCGRDHLSFRSYYFPVKNVIDGDLCEQFNSMEPNKQKNVSEELDRTPPEVSKKLEDIRTRYAF

Tested on: KDM4A-I71AzF
Test: CASI: photo-crosslinking with HEK293T cell extracts, StrepTactin enrichment and LC-MS/MS proteomics;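 also: lysates from HEK293T cells pretreated with a KDM4 inhibitor to raise proteome methylation, affinity-purified after ±UV, gel-resolved, trypsin-digested, with exclusive unique peptides per protein averaged per condition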
Assay type: binding, human
Details: sheet "Final results but with 0.01"

**Q.** Which “Fold change (+UV/-UV)” value does the source give for B1 here?
**A.** The value was 0.3333.

**Q.** For B2, which “Fold change (+UV/-UV)” value is on record?
**A.** The value was 0.3333.

**Q.** Which “Fold change (+UV/-UV)” value does the source give for B3 here?
**A.** Its value is 1.333.

**Q.** Which “Fold change (+UV/-UV)” value does the source give for B4 here?
**A.** The value was 0.

**Q.** For B5, which “Fold change (+UV/-UV)” value is on record?
**A.** Its value is 0.7381.
